In the FLAb antibody collection (doi:10.7554/elife.23156) one finds Kd and yeast surface expression data, which are given here for 57 variants.

B1: scFv; the commonest letter at each place (parent)
chain 1: EVKLDETGGGLVQPGRPMKLSCVASGFTFSDYWMNWVRQSPEKGLEWVAQIRNKPYNYETYYSDSVKGRFTISRDDSKSSVYLQMNNLRVEDMGIYYCTGSYYGMDYWGQGTSVTVS
chain 2: DVVMTQTPLSLPVSLGDQASISCRSSQSLVHSNGNTYLRWYLQKPGQSPKVLIYKVSNRFSGVPDRFSGSGSGTDFTLKISRVEAEDLGVYFCSQSTHVPWTFGGGTKLEIK

The series “fluorescein” covers variants of B1. Briefly: Kd (Tite-Seq). Particulars: with fluorescein; format: scFv 4-4-20, heavy + light.
Variants of B1 are the subject of series [1]. The experiment in a line: yeast surface expression (ratio to wild type); higher = more expressed. Particulars: format: scFv 4-4-20, heavy + light.

Consider chain 1 D31H W33L, for which the Kd – broadly, the equilibrium constant for the complex coming apart – with fluorescein is not below 10000 nM. Further, in series [1], the yeast surface expression was 0.72.
In the same order, the values of chain 1 D31H W33P are not below 10000 nM and 0.631.
Regarding chain 1 D106N Y107I G109S, in the series with fluorescein, the Kd was 136 nM. In series [1], the yeast surface expression turned out to be 0.679.
For chain 1 D31L N35F, the Kd with fluorescein was not below 10000 nM. Besides, the yeast surface expression in series [1] amounted to 0.446.
On the same counts, the results for chain 1 D31P W36I are not below 10000 nM and 0.513.
As to chain 1 D31K W36T, the Kd in the series with fluorescein is not below 10000 nM. Besides, the yeast surface expression in series [1] was determined as 0.343.
With chain 1 D31Q V37P, in the series with fluorescein, the Kd amounted to 8.27 nM. The yeast surface expression in series [1] was found to be 0.0981.
For chain 1 D31L Y32M W36M, the Kd with fluorescein is not below 10000 nM. The yeast surface expression in series [1] turned out to be 0.543.
As for chain 1 D31H V37Q, the dissociation constant Kd with fluorescein stood at 1.28 nM. For the same variant, in series [1], the yeast surface expression was determined as 0.928.
In the case of chain 1 D31H V37I, the Kd with fluorescein amounted to 0.62 nM. Also, the yeast surface expression in series [1] came to 0.799.
In the same order, the values of chain 1 D31S M34C N35Y are not below 10000 nM and 0.927.
With chain 1 D106W Y107G G109L, the Kd with fluorescein was not below 10000 nM. Besides, in series [1], the yeast surface expression was 0.109.
Regarding chain 1 D31G N35Q, the Kd in the series with fluorescein is not below 10000 nM. Further, the yeast surface expression in series [1] was found to be 0.746.
For chain 1 D31G N35H, in the series with fluorescein, the Kd is not below 10000 nM. Moreover, in series [1], the yeast surface expression came to 0.64.
For chain 1 D31G N35A, the Kd with fluorescein was not below 10000 nM. Moreover, the yeast surface expression in series [1] came to 0.664.
For the variant chain 1 D31I, the Kd with fluorescein is not below 10000 nM. Moreover, the yeast surface expression in series [1] amounted to 0.531.
On the same counts, the results for chain 1 D31R are 2.04 nM and 0.736.
On the same counts, the results for chain 1 D31H are 1.79 nM and 0.763.
Regarding chain 1 D31S, the dissociation constant (Kd) with fluorescein was determined as 2.45 nM. In series [1], the yeast surface expression came out at 0.902.
In the case of chain 1 D31F, the equilibrium dissociation constant (Kd) with fluorescein was 5.47 nM. Also, the yeast surface expression in series [1] is 0.636.
On the same counts, the results for chain 1 D31P are not below 10000 nM and 0.853.
For chain 1 D31T, in the series with fluorescein, the Kd is 3.71 nM. In addition, the yeast surface expression in series [1] turned out to be 0.766.
For the variant chain 1 D31Q, the Kd with fluorescein worked out at 2.58 nM. Also, in series [1], the yeast surface expression was found to be 0.877.
Consider chain 1 D31W, for which the Kd with fluorescein is 2.93 nM. In series [1], the yeast surface expression is 0.566.
Regarding chain 1 D31N, in the series with fluorescein, the Kd came to 0.825 nM. Further, in series [1], the yeast surface expression came out at 1.1.
Regarding chain 1 D31V, the Kd with fluorescein was not below 10000 nM. In addition, the yeast surface expression in series [1] worked out at 0.515.
In the same order, the values of chain 1 D31K are 1.54 nM and 0.867.
In the same order, the values of chain 1 D31G are 1.66 nM and 0.887.
On the same counts, the results for chain 1 D31L are 6.38 nM and 0.509.
Regarding chain 1 D31M, in the series with fluorescein, the Kd worked out at 1.94 nM. Also, the yeast surface expression in series [1] is 0.58.
In the same order, the values of chain 1 D31Y are 3.34 nM and 0.729.
In the same order, the values of chain 1 D31P Y32W are not below 10000 nM and 0.762.
As to chain 1 D31P Y32K, in the series with fluorescein, the Kd is not below 10000 nM. Besides, the yeast surface expression in series [1] was 0.708.
In the same order, the values of chain 1 D31P Y32L are not below 10000 nM and 0.86.
Consider chain 1 D31S Y32C, for which the dissociation constant Kd with fluorescein was found to be 6610 nM. Also, in series [1], the yeast surface expression came to 0.648.
In the same order, the values of chain 1 D31S Y32F are 18 nM and 0.876.
In the same order, the values of chain 1 D31S Y32G are 240 nM and 0.78.
As to chain 1 D31S Y32W, the dissociation constant Kd with fluorescein was not below 10000 nM. Also, the yeast surface expression in series [1] came to 0.83.
In the same order, the values of chain 1 D31T V37W are 6610 nM and 0.726.
Regarding chain 1 D31T V37D, in the series with fluorescein, the dissociation constant (Kd) was not below 10000 nM. Besides, in series [1], the yeast surface expression turned out to be 0.511.
chain 1 D31T V37S: the dissociation constant (Kd) with fluorescein is not below 10000 nM. The yeast surface expression in series [1] was 0.269.
In the same order, the values of chain 1 D31R W36N are not below 10000 nM and 1.06.
On the same counts, the results for chain 1 D31W W36E are not below 10000 nM and 1.08.
On the same counts, the results for chain 1 D106H G109K are not below 10000 nM and 0.265.
On to chain 1 D31P V37W, for which the Kd with fluorescein was not below 10000 nM. Also, the yeast surface expression in series [1] was found to be 0.565.
For chain 1 D31M W36A, the Kd with fluorescein is not below 10000 nM. Besides, in series [1], the yeast surface expression was determined as 1.72.
Regarding chain 1 D31E Y32M, the Kd in the series with fluorescein worked out at 8130 nM. Also, the yeast surface expression in series [1] was determined as 0.789.
Take chain 1 D31E Y32P: the Kd in the series with fluorescein is not below 10000 nM. The yeast surface expression in series [1] stood at 0.77.
On the same counts, the results for chain 1 D31H M34Y are 2.79 nM and 0.671.
In the same order, the values of chain 1 D31H M34Q are not below 10000 nM and 0.268.
Turning to chain 1 D31Y N35I, the Kd with fluorescein was not below 10000 nM. Moreover, the yeast surface expression in series [1] is 0.469.
In the same order, the values of chain 1 D31G Y32L are 30.2 nM and 0.645.
On the same counts, the results for chain 1 D31G Y32D are not below 10000 nM and 0.803.
On the same counts, the results for chain 1 D106S W108V are 550 nM and 0.859.
Turning to chain 1 D106L W108C, in the series with fluorescein, the Kd was not below 10000 nM. Further, the yeast surface expression in series [1] turned out to be 0.234.
For chain 1 D106L W108I, in the series with fluorescein, the Kd is not below 10000 nM. The yeast surface expression in series [1] worked out at 0.314.
In the same order, the values of chain 1 D106L W108M are not below 10000 nM and 0.541.
